Consider two molecules from EP0907730B1 (Zenyth Operations Pty Ltd, dated 2009).

The target of test [1] is T1, IL-4 receptor expressed by parental CTLL cells (UniProt P16382 26-810, limits assumed).
T1 construct: whole, on cells; Endogenous receptor of untransfected CTLL cells; also called IL-4 receptors expressed by CTLL cells; IL-4Rα
T1 sequence (looked up): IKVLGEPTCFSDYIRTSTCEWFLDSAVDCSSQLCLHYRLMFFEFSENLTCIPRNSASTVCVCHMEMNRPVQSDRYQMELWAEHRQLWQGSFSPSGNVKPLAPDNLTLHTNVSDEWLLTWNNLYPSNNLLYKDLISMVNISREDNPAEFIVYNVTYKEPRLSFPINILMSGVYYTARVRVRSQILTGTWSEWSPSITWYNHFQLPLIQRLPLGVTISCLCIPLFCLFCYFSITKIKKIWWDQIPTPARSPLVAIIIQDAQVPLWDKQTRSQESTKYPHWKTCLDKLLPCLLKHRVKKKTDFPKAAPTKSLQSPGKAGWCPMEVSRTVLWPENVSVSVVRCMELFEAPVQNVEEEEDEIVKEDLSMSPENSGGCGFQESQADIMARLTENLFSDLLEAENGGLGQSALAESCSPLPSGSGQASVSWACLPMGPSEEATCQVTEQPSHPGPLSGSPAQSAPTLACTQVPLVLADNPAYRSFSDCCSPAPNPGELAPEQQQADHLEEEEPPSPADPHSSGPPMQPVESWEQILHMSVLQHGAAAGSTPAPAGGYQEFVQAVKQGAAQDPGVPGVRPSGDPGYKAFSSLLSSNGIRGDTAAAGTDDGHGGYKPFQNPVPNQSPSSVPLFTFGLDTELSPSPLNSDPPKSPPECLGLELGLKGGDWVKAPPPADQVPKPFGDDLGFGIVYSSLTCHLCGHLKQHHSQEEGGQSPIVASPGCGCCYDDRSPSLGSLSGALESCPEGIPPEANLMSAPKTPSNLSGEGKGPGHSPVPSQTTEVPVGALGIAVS
The test is described as follows: 125I-IL-13 saturation binding on parental CTLL cells.

Test [2] deals with T1, IL-4 receptor expressed by parental …. The test is described as follows: 125I-IL-4 saturation binding (Scatchard) on parental CTLL cells.

B1: IL-13 (obtained commercially, R & D Systems) (ligand, UniProt P20109 19-131, looked up)
chain: APGPVPRSVSLPLTLKELIEELSNITQDQTPLCNGSMVWSVDLAAGGFCVALDSLTNISNCNAIYRTQRILHGLCNRKAPTTVSSLPDTKIEVAHFITKLLSYTKQLFRHGPF
modifications: radioiodinated (125I, iodine monochloride method) where used as tracer
notes: also called interleukin-13
For B1, in test [1], the binding result is on record as “no binding”.

B2: IL-4 (obtained commercially, R & D Systems) (ligand, UniProt P07750 23-140, looked up)
chain: HGCDKNHLREIIGILNEVTGEGTPCTEMDVPNVLTATKNTTESELVCRASKVLRIFYLKHGKTPCLKKNSSVLMELQRLFRAFRCLDSSISCTMNESKSTSLKDFLESLKSIMQMDYS
modifications: radiolabelled with di-iodo-Bolton-Hunter reagent (125I) where used as tracer
notes: also called interleukin-4
As to B2, the equilibrium dissociation constant (Kd) (commonly a measure of binding affinity in units of concentration) in test [2] is roughly 0.66 nM.
